Data published in IntAct's records for PubMed 20228790.

Target: PRKCB, P05771-1
Sequence (P05771 whole entry, looked up): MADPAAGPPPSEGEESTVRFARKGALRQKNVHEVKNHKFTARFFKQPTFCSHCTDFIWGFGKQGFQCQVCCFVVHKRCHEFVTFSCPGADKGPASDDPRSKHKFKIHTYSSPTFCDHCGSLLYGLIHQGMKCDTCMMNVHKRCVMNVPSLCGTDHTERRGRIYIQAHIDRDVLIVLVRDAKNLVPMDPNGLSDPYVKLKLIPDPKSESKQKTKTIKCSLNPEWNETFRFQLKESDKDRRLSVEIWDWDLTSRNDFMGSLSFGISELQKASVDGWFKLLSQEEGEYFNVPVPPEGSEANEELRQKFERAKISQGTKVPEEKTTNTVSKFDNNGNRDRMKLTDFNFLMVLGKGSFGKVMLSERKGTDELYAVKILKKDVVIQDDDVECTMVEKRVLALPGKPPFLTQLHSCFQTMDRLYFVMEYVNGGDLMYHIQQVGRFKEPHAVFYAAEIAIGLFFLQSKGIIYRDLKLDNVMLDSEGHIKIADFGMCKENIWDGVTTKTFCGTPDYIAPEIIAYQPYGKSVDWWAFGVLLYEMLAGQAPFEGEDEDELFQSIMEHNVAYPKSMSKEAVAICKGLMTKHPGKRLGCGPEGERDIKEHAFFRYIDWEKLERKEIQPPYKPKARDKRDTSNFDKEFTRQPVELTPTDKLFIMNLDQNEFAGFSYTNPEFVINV

- effect of a mutation on the interaction: disrupting interaction
Substance: Histone H3.1 (Homo sapiens) (from UniProt P68431) T7A
